Experimental data published in PMC7948479, “Allostery in the nitric oxide dioxygenase mechanism of flavohemoglobin” (The Journal of Biological Chemistry, 2020).
Where two headings read alike, the source gives them in different places.

Key:
[1] = tested on: flavoHb heme (Fe^2+ / Fe^3+); conditions: cited from earlier work
[2] = set-up: method as in PMID 10777548, PMID 10922365; conditions: cited from earlier work
flavoHb = tested on: flavoHb; set-up: method as in PMID 22948361; conditions: cited from earlier work
NADH oxidase activity = format: biochemical; conditions: 37 °C; relative to heme content
Experimental: (§2) NADH oxidase activity was followed spectrophotometrically at 340 nm in a 1.0-ml cuvette containing 90 mM Tris chloride buffer, pH 8.2, 100 μM NADH, 200 μM O2, 0.1 μM FAD, 100 μg/ml BSA, and 0.3 mM EDTA and incubated at 37 °C. […] TMAO reductase activity was assayed by following the absorbance decrease at 340 nm in a 1.0-ml anaerobic reaction containing 12 U Aspergillus niger glucose oxidase, 5 mM glucose, 260 U catalase, 400 mM TMAO, 100 μM NADH, 0.1 μM FAD, 100 μg/ml BSA, and 0.3 mM EDTA in 90 mM Tris chloride pH 8.2 and incubated at 37 °C. […] Methyl viologen reductase activity was assayed by following the formation of the blue cation radical at 603 nm and by applying an extinction coefficient of 13,300 M^−1 cm^−1 in a 1.0-ml anaerobic reaction buffered with 10 mM potassium phosphate, pH 7.0, and containing 12 U glucose oxidase, 5 mM glucose, 260 U catalase, 100 μM NADH, 0.1 μM FAD, 100 μg/ml BSA, 0.3 mM EDTA, and 200 mM sodium chloride and incubated at 37 °C. NO reductase activity was assayed amperometrically at 37 °C in a 1.0-ml anaerobic reaction containing 2 μM NO, 100 μM NADH, 0.1 μM FAD, 12 U glucose oxidase, 5 mM glucose, 260 U catalase, 100 μg/ml BSA, and 0.3 mM EDTA buffered with 10 mM potassium phosphate pH 7.0. CO effects were tested at a final concentration of 50 μM as diluted from a 1 mM stock in water. […]

Ngb = Ngb reductase activity; format: biochemical, murine; conditions: 37 °C; 5 μM Ngb; anaerobic
Source text: Reagents were purchased from Sigma-Aldrich Chemical Co (St Louis, MO, USA) unless otherwise stated. DNA primers were synthesized at the University of Cincinnati Medical Center DNA facility. Praxair (Bethlehem, PA, USA) was the supplier of 99.993% O2, 99.999% CO, and 99.98% N2. Bovine liver catalase (260,000 U/ml) was obtained from Roche Applied Science. Recombinant rat cytochrome b5 (soluble form) and murine Ngb were expressed in E. coli and purified essentially as described ([10], [70]). NADH purity (≥95%) was assessed by the ratio of the 340 to 260 nm absorbance with a value of 0.437 equal to 100% reduced.

anaerobic E. coli = tested on: anaerobic E. coli; set-up: method as in PMID 11751864; conditions: cited from earlier work
TMAO reductase activity = format: biochemical; conditions: 37 °C; 400 mM TMAO; anaerobic
Experimental: as §2

[3] = NO reductase activity (anaerobic); format: biochemical
Experimental: as §2

[4] = target: flavoHb heme (Fe^2+ / Fe^3+) (Escherichia coli, UniProt P24232)
Experimental: (§1) FAD and heme reduction were monitored by following the changes in flavoHb absorbance at 460 and 430 nm, respectively, with stopped-flow rapid mixing of 50 μM NADH and 10 μM flavoHb in N2-purged buffer ([4]). O2, NO, and CO association rate constants were determined by photolyzing 50 μM of the respective ferrous flavoHb species with a 300-ns pulse from a 577-nm laser and by spectrophotometrically following ligand reassociation in O2-, NO-, or CO-saturated buffer unless otherwise indicated ([4], [5]). […] Binding of NO was measured by the change of absorbance at 422 nm by applying a difference extinction coefficient of 0.040 μM^−1 cm^−1. O2 and CO dissociation rate constants were determined by stopped-flow rapid mixing with either CO or NO displacement ([4], [5]). The cuvette path length was 1.0 cm. All reactions were at 20 °C in filtered 100 mM sodium phosphate buffer, pH 7.0, containing 0.3 mM EDTA. Catalase (1000 U/ml) was included in all reactions containing O2 to scavenge H2O2 produced by the NADH oxidase activity of flavoHb and to regenerate O2.

E. coli flavoHb [5] = target: T1, E. coli flavoHb (Escherichia coli, UniProt P24232)
Experimental: as §1

[6] = tested on: flavoHb heme (Fe^2+ / Fe^3+); conditions: for Kd: from slow phase; for time for 90% activity recovery following NO binding: calculated from k(NO)
Experimental: as §1

E. coli flavoHb [7] = tested on: E. coli flavoHb
Experimental: as §1

E. coli flavoHb [8] = target: T1, E. coli flavoHb; conditions: cited from earlier work
[9] = Fe2+ CO, 100 µM CO in the presence of 0.6 mM N2
[10] = Fe2+ O2, 100 µM CO in the presence of 1 mM O2

B1: WT: wild-type E. coli flavohemoglobin (flavoHb), an NO dioxygenase (NOD) (protein, UniProt P24232 1-396, looked up)
Flavohemoprotein: MLDAQTIATVKATIPLLVETGPKLTAHFYDRMFTHNPELKEIFNMSNQRNGDQREALFNAIAAYASNIENLPALLPAVEKIAQKHTSFQIKPEQYNIVGEHLLATLDEMFSPGQEVLDAWGKAYGVLANVFINREAEIYNENASKAGGWEGTRDFRIVAKTPRSALITSFELEPVDGGAVAEYRPGQYLGVWLKPEGFPHQEIRQYSLTRKPDGKGYRIAVKREEGGQVSNWLHNHANVGDVVKLVAPAGDFFMAVADDTPVTLISAGVGQTPMLAMLDTLAKAGHTAQVNWFHAAENGDVHAFADEVKELGQSLPRFTAHTWYRQPSEADRAKGQFDSEGLMDLSKLEGAFSDPTMQFYLCGPVGFMQFTAKQLVDLGVKQENIHYECFGPHKVL
Question: For B1, which k ([1]; Fe^2+ NO dissociation) is on record?
Answer: 0.0002 (4) s^−1

Question: And the k ([1]; Fe^3+ NO dissociation)?
Answer: ∼4000 (4) s^−1

Question: And the “NO elimination via reduction” value [2]?
Answer: ≤ 0.1 s⁻¹

Question: What about the “Vmax for Fe^2+NO reduction” value [2] of the same molecule?
Answer: 0.1 s⁻¹

Question: And the “kET by time-resolved pulse radiolysis” value (flavoHb)?
Answer: 6800 s⁻¹

Question: And the NADH oxidase activity (NADH oxidase activity)?
Answer: 0.27 s⁻¹

Question: What about the Ngb reductase activity (Ngb) of the same molecule?
Answer: 0.20 s⁻¹

Question: What about the NO metabolic activity (anaerobic E. coli) of the same molecule?
Answer: insignificant NO metabolic activity

Question: What about the TMAO reductase activity (TMAO reductase activity) of the same molecule?
Answer: 0.21 s⁻¹

Question: And the NO reductase activity ([3]; 37 °C, 2 μM NO, anaerobic)?
Answer: 0.19 s⁻¹

Question: What about the “time for 90% reversal in the steady state” value ([3]; with NO elimination via reduction) of the same molecule?
Answer: 23 s

Question: What about the “decrease of fraction of flavoHbFe^3+O2^− formed in the fast phase” value [4] of the same molecule?
Answer: ~50%

Question: What about the “τT for O2 rebinding” value [4] of the same molecule?
Answer: ~55 μs

Question: And the “k′H, bimolecular rate constant for hydride transfer NADH to FAD” value (E. coli flavoHb [5])?
Answer: 1.5e+07 M⁻¹ s⁻¹

Question: What about the “k' fast” value [6, 9] of the same molecule?
Answer: 2.9e+07 M⁻¹ s⁻¹

Question: What about the “k' slow” value [6, 9] of the same molecule?
Answer: 2.7e+06 M⁻¹ s⁻¹

Question: What about the τT [6, 9] of the same molecule?
Answer: 500 ± 100 µs

Question: And the “k' fast” value [6, 10]?
Answer: 2.9e+07 M⁻¹ s⁻¹

Question: And the “k' slow” value [6, 10]?
Answer: 1.9e+06 M⁻¹ s⁻¹

Question: What about the τT [6, 10] of the same molecule?
Answer: 70 ± 10 µs

Question: And the “k′fast” value ([6]; Fe^2+ CO, 20 °C)?
Answer: 1.4e+07 M⁻¹ s⁻¹

Question: And the “k′slow” value ([6]; Fe^2+ CO, 20 °C)?
Answer: 1.4e+06 M⁻¹ s⁻¹

Question: And the τT ([6]; Fe^2+ CO, 20 °C)?
Answer: 175 ± 25 μs

Question: What about the Kd ([6]; Fe^2+ CO, 20 °C) of the same molecule?
Answer: 12 to 39 nM

Question: What about the “k′fast” value ([6]; Fe^2+ NO, 20 °C) of the same molecule?
Answer: 3.1e+07 M⁻¹ s⁻¹

Question: And the “k′slow” value ([6]; Fe^2+ NO, 20 °C)?
Answer: 8.5e+06 M⁻¹ s⁻¹

Question: What about the τT ([6]; Fe^2+ NO, 20 °C) of the same molecule?
Answer: 40 ± 10 μs

Question: And the Kd ([6]; Fe^2+ NO)?
Answer: 0.024 nM

Question: And the “k′fast” value ([6]; Fe^2+ O2, 20 °C)?
Answer: 3.3e+07 M⁻¹ s⁻¹

Question: And the “k′slow” value ([6]; Fe^2+ O2, 20 °C)?
Answer: 1.4e+07 M⁻¹ s⁻¹

Question: What about the τT ([6]; Fe^2+ O2, 20 °C) of the same molecule?
Answer: 70 ± 5 μs

Question: And the k ([6]; Fe^2+ O2 dissociation, 20 °C)?
Answer: 0.20 s⁻¹

Question: What about the “k′fast” value ([6]; Fe^3+ NO, 20 °C) of the same molecule?
Answer: 4.6e+07 M⁻¹ s⁻¹

Question: And the “k′slow” value ([6]; Fe^3+ NO, 20 °C)?
Answer: 1.2e+07 M⁻¹ s⁻¹

Question: What about the τT ([6]; Fe^3+ NO, 20 °C) of the same molecule?
Answer: 18 ± 3 μs

Question: And the Kd ([6]; Fe^3+ NO)?
Answer: 330000 nM

Question: And the “time for 90% activity recovery following NO binding” value ([6]; ferric NO form)?
Answer: 0.6 ms

Question: And the “time for 90% activity recovery following NO binding” value ([6]; ferrous NO species)?
Answer: 1.15e+07 ms

Question: What about the “kET, heme reduction by FADH2 (maximum / apparent)” value (E. coli flavoHb [7]; 20 °C, absorbance at 430 nm) of the same molecule?
Answer: 120 s⁻¹

Question: And the “maximal NADH-driven ET rate measured by stopped flow” value (E. coli flavoHb [7]; Fig. 9B)?
Answer: 160 s⁻¹

Question: And the kET previously reported (E. coli flavoHb [8])?
Answer: 136 s⁻¹
